Laboratory results: the supplement of paper PMC9170038

Experiments:
MS2 coat protein [1] = experiment: apparent KD of MS2 coat protein, switch ON state; designed switch direction (-1 OFF switch, 1 ON switch): -1; higher = weaker reporter binding; conditions: FMN input: 0 or 200 uM; Eterna round: R93 (includes R88 designs)
In short: (§1)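 Normalised binding curves from single clusters were fitted, and the median fit for each design is given as apparent KD. The clusters held designed RNA switches transcribed on-chip from Illumina sequencing clusters. These were titrated with SNAP-549-labelled MS2 coat protein (twofold steps from 0.7 or 1.5 nM to 3 µM, 0.8–1.5 h to 10–20 min per step) in 100 mM Tris-HCl pH 7.5, 80 mM KCl, 4 mM MgCl2, without or with constant ligand.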

MS2 coat protein [2] = experiment: apparent KD of MS2 coat protein, switch OFF state (with FMN for OFF switches, without FMN for ON switches); designed switch direction (-1 OFF switch, 1 ON switch): -1; higher = weaker reporter binding; conditions: FMN input: 0 or 200 uM; Eterna round: R93 (includes R88 designs)
In short: as §1

Sequence | apparent KD of MS2 coat protein (MS2 coat protein [1]) [nM] | apparent KD of MS2 coat protein (MS2 coat protein [2]) [nM]
AACAGGACAGGAUAUACAUGAGGAUCACCCAUGUAGGAAUUAAGCAGAGUACCAAACAGUAGAAGGGUCAUGGA [Ruby 27] | 33.3 | 44.7
AACAGGGCAGGAUAUACAUGAGGAUCACCCAUGUAGGAAACAAGCAGAGUACCAAAAAGUAGAAGGGUCAUGGA [Ruby 31] | 30.2 | 33.1
AACAGUACAGGAUAUACAUGAGGAUCACCCAUGUGAAUAAAUAGUGGCGUACCACAAAGUAGAAGGGUACUGGA [Mat - Exclusion 3 - JL mod - D25] | 27.4 | 136
AAAAAUGGAGGAUAUACAUGAGGAUCACCCAUGUGAGACCAAGAAAAAGAAAAAGAAAGUAGAAGGCCAUAAAA [Ex 3 May 24] | 24.5 | 152
GGAAAACAUGAGGAUCACCCAUGUAAGGAUAUGCAAAAAAAAAAAGGAUAUAGAAGGAGCAGAAGGUACAAAGG [salish99-ex1-29] | 36.2 | 57
AAGAAGCUAGGAUAUACAUGAGGAUCACCCAUGUAAAAGAAAGAGGGAAAAGAGAAAAGUAGAAGGAGCAAGAA [Cleopatra I] | 27.8 | 25.4
AGCAAGUCAGGAUAUACGAACAAGACAAAAGACGAGAAGGGACAUGAGGAUCACCCAUGUAGAAGGGACAAGCA [74%, Web mod - With 5 less U's] | 61.9 | 60.8
AAAAAACAUGAGGAUCACCCAUGUCAGGAUAUCGUCAUAGAUGCAAAAGCAUCUAUGACGAGAAGGGACAUGCC [JL EX1 03] | 103 | 64.6
AGAAAACAUGAGGAUCACCCAUGUGAGGAUAUGUAAAAGAAAAGAAAAGAAAGAAGAAACAGAAGGCACAAGAA [Nynetjer] | 24.9 | 45.6
UAUGAGCGAGGAUAUGCUUGGGACUGUCGGAAGGUGGCGGGACAUGAGGAUCACCCAUGUAGAAGGCGCGAGCG [Harteesian Tree] | 59.8 | 67.4
AUAGGCCAAGGAUAUACAUGAGGAUCACCCAUGUAAAUAACUCGAUCAAAAUAAACAAGUAGAAGGUGGAAUAA [JR_Exc003_Sub204] | 25.1 | 29.4
AAUAAGUGAGGAUAUACUAAAGAAAUGAAAAGAAAUAAAGAACAUGAGGAUCACCCAUGUAGAAGGCACAAUAA [Sekheperenre] | 24.4 | 24.5
ACCUGACAUGAGGAUCACCCAUGUCAGGAUAUGCAUCUUAGGAAAAAAAAACUAAGAUGCAGAAGGGACAUGGG [Design 2: Super Stable 2] | 25.4 | 27.5
AAAAAACAUGAGGAUCACCCAUGUCAGGAUAUUUCUAAAAAAAAAAAAAAAAAAAAUGAAAGAAGGGACAAAAA [excalibur 6] | 58 | 52.5
AAGAAGUCAGGAUAUGCUGCUCGUCACUUGCGUGAUGAGUAGCAGAAGGGACAUGAGGAUCACCCAUGUGGAAA [Modifying Chris (69%) Late G segment 2] | 123 | 246
AAGAGUACAGGAUAUAUGUGAAAAGAGUCGAAAGACUCGGGACAUGAGGAUCACCCAUGUAGAAGGGUACUCAA [Diamond 75] | 75.7 | 79.7
AACAGGUGAGGAUAUCUGGAUAGGAAAAAGAAAACCUAUCCAGAGAAGGCACAUGAGGAUCACCCAUGUAAAAA [JL cataway mod 8] | 78.5 | 96.2
AAGUUGGGAGGAUAUAUAUGGACACACAUUGGUGUAGAACUACAUGAGGAUCACCCAUGUAGAAGGCCCAAAUA [AJ 57] | 20.3 | 33.1
GAAAGGUCAGGAUAUACGUUAUGCUAGUGCUCGUACUAUAAGUAGAAGGGACAUGAGGAUCACCCAUGUGAUAA [Kawasakiqro] | 45.2 | 58.3
GAUCAGCUAGGAUAUACAUUAAUCCGAUAUGAGAAGAAAGAACAUGAGGAUCACCCAUGUAGAAGGAGCCAGUA [Ridigeer] | 40.2 | 39.3
AACAGGACAGGAUAUACAUGAGGAUCACCCAUGUAGGAAACAAGCAGAGUACCAAACAGUAGAAGGGUCAUGGA [Ruby 29] | 31.3 | 50.3
CUCGUGUCAGGAUAUGGAAGGCCGUUUGAUUAACGAGGGUACUAGAAGGGACAUGAGGAUCACCCAUGUAAAAA [Maonis] | 81.5 | 90.4
GAAAAGCAAGGAUAUACAUGAGGAUCACCCAUGUGGAAUGGCGUGACCGAAAGAAAAGGUAGAAGGUGCACGUG [Ragetia] | 216 | 286
